± gives the uncertainty stated by the source.

This data set in a line: abundance fitness (aPCA) (normalised: wild type 0, dead -1); higher = more abundant; growth selection in yeast, the domain comes from the species named. To be noted: Homo sapiens.
In the case of “E3 ubiquitin-protein ligase NEDD4-like K202V, Q96PU5”, the abundance fitness was -0.408 ± 0.059.

“E3 ubiquitin-protein ligase NEDD4-like K202W, Q96PU5”: the abundance fitness was -0.838 ± 0.089.

In turn, “E3 ubiquitin-protein ligase NEDD4-like K202Y, Q96PU5” yielded an abundance fitness of -0.289 ± 0.11.

Substance “E3 ubiquitin-protein ligase NEDD4-like L190A, Q96PU5” returned an abundance fitness of -0.186 ± 0.075.

“E3 ubiquitin-protein ligase NEDD4-like L190C, Q96PU5” returned an abundance fitness of 0.09 ± 0.076.

With “E3 ubiquitin-protein ligase NEDD4-like L190D, Q96PU5”, the abundance fitness was found to be 0.066 ± 0.1.

In turn, “E3 ubiquitin-protein ligase NEDD4-like L190F, Q96PU5” showed an abundance fitness of 0.051 ± 0.095.

With “E3 ubiquitin-protein ligase NEDD4-like L190G, Q96PU5”, the abundance fitness is -0.178 ± 0.059.

“E3 ubiquitin-protein ligase NEDD4-like L190H, Q96PU5” yielded an abundance fitness of -0.141 ± 0.11.

The substance “E3 ubiquitin-protein ligase NEDD4-like L190I, Q96PU5” returned an abundance fitness of 0.125 ± 0.1.

For “E3 ubiquitin-protein ligase NEDD4-like L190K, Q96PU5”, the abundance fitness is 0.08 ± 0.076.

Consider “E3 ubiquitin-protein ligase NEDD4-like L190M, Q96PU5”, for which the abundance fitness was -0.407 ± 0.097.

As to “E3 ubiquitin-protein ligase NEDD4-like L190N, Q96PU5”, the abundance fitness is -0.031 ± 0.087.

“E3 ubiquitin-protein ligase NEDD4-like L190P, Q96PU5” had an abundance fitness of -0.479 ± 0.067.

As to “E3 ubiquitin-protein ligase NEDD4-like L190Q, Q96PU5”, the abundance fitness was -0.556 ± 0.13.

With “E3 ubiquitin-protein ligase NEDD4-like L190R, Q96PU5”, the abundance fitness is -0.024 ± 0.057.

The substance “E3 ubiquitin-protein ligase NEDD4-like L190S, Q96PU5” showed an abundance fitness of -0.02 ± 0.056.

As for “E3 ubiquitin-protein ligase NEDD4-like L190T, Q96PU5”, the abundance fitness is -0.182 ± 0.074.

Take “E3 ubiquitin-protein ligase NEDD4-like L190V, Q96PU5”: the abundance fitness is -0.053 ± 0.053.

As to “E3 ubiquitin-protein ligase NEDD4-like L190W, Q96PU5”, the abundance fitness was -0.503 ± 0.068.

Substance “E3 ubiquitin-protein ligase NEDD4-like L190Y, Q96PU5” had an abundance fitness of -0.094 ± 0.088.

As for “E3 ubiquitin-protein ligase NEDD4-like L195A, Q96PU5”, the abundance fitness was -0.072 ± 0.22.

Take “E3 ubiquitin-protein ligase NEDD4-like L195F, Q96PU5”: the abundance fitness is -0.902 ± 0.38.

The substance “E3 ubiquitin-protein ligase NEDD4-like L195G, Q96PU5” displayed an abundance fitness of -0.581 ± 0.28.

With “E3 ubiquitin-protein ligase NEDD4-like L195S, Q96PU5”, the abundance fitness is -0.182 ± 0.33.

In the case of “E3 ubiquitin-protein ligase NEDD4-like L195V, Q96PU5”, the abundance fitness was determined as 0.143 ± 0.17.

As to “E3 ubiquitin-protein ligase NEDD4-like L206A, Q96PU5”, the abundance fitness turned out to be 0.124 ± 0.059.

Consider “E3 ubiquitin-protein ligase NEDD4-like L206C, Q96PU5”, for which the abundance fitness came out at 0.003 ± 0.09.

“E3 ubiquitin-protein ligase NEDD4-like L206D, Q96PU5” had an abundance fitness of 0.015 ± 0.095.

“E3 ubiquitin-protein ligase NEDD4-like L206E, Q96PU5”: the abundance fitness was 0.044 ± 0.084.

For “E3 ubiquitin-protein ligase NEDD4-like L206G, Q96PU5”, the abundance fitness was 0.059 ± 0.059.

Turning to “E3 ubiquitin-protein ligase NEDD4-like L206I, Q96PU5”, the abundance fitness was -0.159 ± 0.13.

In the case of “E3 ubiquitin-protein ligase NEDD4-like L206K, Q96PU5”, the abundance fitness came to 0.126 ± 0.11.

“E3 ubiquitin-protein ligase NEDD4-like L206M, Q96PU5” showed an abundance fitness of -0.083 ± 0.096.

The values are drawn from the Human Domainome abundance scans (Beltran et al. 2025).
